# Source: patent US20070275916A1
# Key:
# [1] = molecular target: G-CSFR on mouse bone marrow cells (mouse) (UniProt P40223); assay: radiolabeled G-CSF on bone marrow cells from vavCre+SOCS3-/fl mice, with and without excess unlabeled G-CSF
# [2] = molecular target: G-CSFR on mouse bone marrow cells (mouse) (UniProt P40223); assay: radiolabeled G-CSF on bone marrow cells from control vavCre-SOCS3+/fl mice, with and without excess unlabeled G-CSF
# Chain of UniProt P40223 (P40223 26-837): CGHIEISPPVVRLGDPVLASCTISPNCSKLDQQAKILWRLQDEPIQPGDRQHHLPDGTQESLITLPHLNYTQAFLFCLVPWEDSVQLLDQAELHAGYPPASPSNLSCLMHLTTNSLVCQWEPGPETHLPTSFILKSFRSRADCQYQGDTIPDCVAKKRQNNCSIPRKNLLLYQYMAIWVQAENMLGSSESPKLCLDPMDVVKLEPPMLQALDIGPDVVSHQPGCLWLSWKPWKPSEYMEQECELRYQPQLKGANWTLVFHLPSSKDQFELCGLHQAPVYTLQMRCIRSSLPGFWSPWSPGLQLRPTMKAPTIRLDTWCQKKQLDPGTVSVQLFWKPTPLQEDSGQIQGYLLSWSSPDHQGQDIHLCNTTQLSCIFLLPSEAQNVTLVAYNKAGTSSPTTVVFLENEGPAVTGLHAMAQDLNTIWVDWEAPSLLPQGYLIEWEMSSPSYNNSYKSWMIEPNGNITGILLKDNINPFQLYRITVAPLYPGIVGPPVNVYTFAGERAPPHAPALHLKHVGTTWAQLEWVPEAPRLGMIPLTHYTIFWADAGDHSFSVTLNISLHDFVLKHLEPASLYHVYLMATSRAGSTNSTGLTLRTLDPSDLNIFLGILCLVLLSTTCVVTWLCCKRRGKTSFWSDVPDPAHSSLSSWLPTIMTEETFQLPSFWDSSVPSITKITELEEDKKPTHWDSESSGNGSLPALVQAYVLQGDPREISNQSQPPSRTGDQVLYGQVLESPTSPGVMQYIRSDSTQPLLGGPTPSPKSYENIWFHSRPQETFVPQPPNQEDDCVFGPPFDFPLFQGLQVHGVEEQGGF
substance,measurement,setting,value
radiolabeled G-CSF (ligand),cpm bound,[1],1700 cpm
same,cpm bound,[2],1880 cpm
